Laboratory results taken from IntAct's records for PubMed 25502805.

B1: Interleukin-1 receptor-associated kinase 4 (Homo sapiens), Q9NWZ3 (parent)
chain: MNKPITPSTYVRCLNVGLIRKLSDFIDPQEGWKKLAVAIKKPSGDDRYNQFHIRRFEALLQTGKSPTSELLFDWGTTNCTVGDLVDLLIQNEFFAPASLLLPDAVPKTANTLPSKEAITVQQKQMPFCDKDRTLMTPVQNLEQSYMPPDSSSPENKSLEVSDTRFHSFSFYELKNVTNNFDERPISVGGNKMGEGGFGVVYKGYVNNTTVAVKKLAAMVDITTEELKQQFDQEIKVMAKCQHENLVELLGFSSDGDDLCLVYVYMPNGSLLDRLSCLDGTPPLSWHMRCKIAQGAANGINFLHENHHIHRDIKSANILLDEAFTAKISDFGLARASEKFAQTVMTSRIVGTTAYMAPEALRGEITPKSDIYSFGVVLLEIITGLPAVDEHREPQLLLDIKEEIEDEEKTIEDYIDKKMNDADSTSVEAMYSVASQCLHEKKNKRPDIKKVQQLLQEMTAS
B2: DNA mismatch repair protein Mlh1 (Homo sapiens), P40692 (parent)
chain: MSFVAGVIRRLDETVVNRIAAGEVIQRPANAIKEMIENCLDAKSTSIQVIVKEGGLKLIQIQDNGTGIRKEDLDIVCERFTTSKLQSFEDLASISTYGFRGEALASISHVAHVTITTKTADGKCAYRASYSDGKLKAPPKPCAGNQGTQITVEDLFYNIATRRKALKNPSEEYGKILEVVGRYSVHNAGISFSVKKQGETVADVRTLPNASTVDNIRSIFGNAVSRELIEIGCEDKTLAFKMNGYISNANYSVKKCIFLLFINHRLVESTSLRKAIETVYAAYLPKNTHPFLYLSLEISPQNVDVNVHPTKHEVHFLHEESILERVQQHIESKLLGSNSSRMYFTQTLLPGLAGPSGEMVKSTTSLTSSSTSGSSDKVYAHQMVRTDSREQKLDAFLQPLSKPLSSQPQAIVTEDKTDISSGRARQQDEEMLELPAPAEVAAKNQSLEGDTTKGTSEMSEKRGPTSSNPRKRHREDSDVEMVEDDSRKEMTAACTPRRRIINLTSVLSLQEEINEQGHEVLREMLHNHSFVGCVNPQWALAQHQTKLYLLNTTKLSEELFYQILIYDFANFGVLRLSEPAPLFDLAMLALDSPESGWTEEDGPKEGLAEYIVEFLKKKAEMLADYFSLEIDEEGNLIGLPLLIDNYVPPLEGLPIFILRLATEVNWDEEKECFESLSKECAMFYSIRKQYISEESTLSGQQSEVPGSIPNSWKWTVEHIVYKALRSHILPPKHFTEDGNILQLANLPDLYKVFERC
partner: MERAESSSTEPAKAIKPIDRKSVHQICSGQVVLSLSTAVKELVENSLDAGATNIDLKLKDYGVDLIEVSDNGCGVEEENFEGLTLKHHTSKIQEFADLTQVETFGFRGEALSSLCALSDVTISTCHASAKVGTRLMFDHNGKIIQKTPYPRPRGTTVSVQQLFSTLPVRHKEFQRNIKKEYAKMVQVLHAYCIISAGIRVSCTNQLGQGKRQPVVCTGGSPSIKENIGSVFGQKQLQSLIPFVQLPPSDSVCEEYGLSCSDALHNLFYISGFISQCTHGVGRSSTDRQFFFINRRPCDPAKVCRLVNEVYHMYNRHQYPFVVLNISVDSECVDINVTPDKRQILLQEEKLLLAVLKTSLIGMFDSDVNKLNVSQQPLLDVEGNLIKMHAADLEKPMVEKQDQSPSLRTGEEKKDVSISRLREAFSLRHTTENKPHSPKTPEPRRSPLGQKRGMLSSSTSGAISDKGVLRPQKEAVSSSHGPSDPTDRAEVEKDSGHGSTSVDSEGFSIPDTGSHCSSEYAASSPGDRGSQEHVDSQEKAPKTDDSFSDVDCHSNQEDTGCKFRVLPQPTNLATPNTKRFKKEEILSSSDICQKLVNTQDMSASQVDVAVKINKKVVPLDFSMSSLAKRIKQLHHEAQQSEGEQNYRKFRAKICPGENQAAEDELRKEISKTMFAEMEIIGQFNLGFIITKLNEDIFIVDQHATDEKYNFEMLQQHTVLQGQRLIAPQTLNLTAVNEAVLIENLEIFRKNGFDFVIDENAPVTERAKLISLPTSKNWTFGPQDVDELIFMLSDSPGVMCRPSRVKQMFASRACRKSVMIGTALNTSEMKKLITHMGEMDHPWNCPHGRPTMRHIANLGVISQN
B3: Scaffold protein ILK (Homo sapiens), Q13418 (parent)
chain: MDDIFTQCREGNAVAVRLWLDNTENDLNQGDDHGFSPLHWACREGRSAVVEMLIMRGARINVMNRGDDTPLHLAASHGHRDIVQKLLQYKADINAVNEHGNVPLHYACFWGQDQVAEDLVANGALVSICNKYGEMPVDKAKAPLRELLRERAEKMGQNLNRIPYKDTFWKGTTRTRPRNGTLNKHSGIDFKQLNFLTKLNENHSGELWKGRWQGNDIVVKVLKVRDWSTRKSRDFNEECPRLRIFSHPNVLPVLGACQSPPAPHPTLITHWMPYGSLYNVLHEGTNFVVDQSQAVKFALDMARGMAFLHTLEPLIPRHALNSRSVMIDEDMTARISMADVKFSFQCPGRMYAPAWVAPEALQKKPEDTNRRSADMWSFAVLLWELVTREVPFADLSNMEIGMKVALEGLRPTIPPGISPHVCKLMKICMNEDPAKRPKFDMIVPILEKMQDK
partner: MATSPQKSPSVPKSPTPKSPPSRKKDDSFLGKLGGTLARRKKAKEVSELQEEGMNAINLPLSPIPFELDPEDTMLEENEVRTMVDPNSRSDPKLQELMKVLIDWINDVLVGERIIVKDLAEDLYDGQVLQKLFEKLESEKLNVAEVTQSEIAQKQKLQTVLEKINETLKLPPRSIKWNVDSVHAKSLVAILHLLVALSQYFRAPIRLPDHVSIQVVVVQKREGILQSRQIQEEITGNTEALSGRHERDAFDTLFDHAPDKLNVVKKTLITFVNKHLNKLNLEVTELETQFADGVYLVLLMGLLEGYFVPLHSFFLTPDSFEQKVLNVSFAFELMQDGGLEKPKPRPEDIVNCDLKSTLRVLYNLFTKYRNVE
B4: Mothers against decapentaplegic homolog 4 (Homo sapiens), Q13485 (parent)
chain: MDNMSITNTPTSNDACLSIVHSLMCHRQGGESETFAKRAIESLVKKLKEKKDELDSLITAITTNGAHPSKCVTIQRTLDGRLQVAGRKGFPHVIYARLWRWPDLHKNELKHVKYCQYAFDLKCDSVCVNPYHYERVVSPGIDLSGLTLQSNAPSSMMVKDEYVHDFEGQPSLSTEGHSIQTIQHPPSNRASTETYSTPALLAPSESNATSTANFPNIPVASTSQPASILGGSHSEGLLQIASGPQPGQQQNGFTGQPATYHHNSTTTWTGSRTAPYTPNLPHHQNGHLQHHPPMPPHPGHYWPVHNELAFQPPISNHPAPEYWCSIAYFEMDVQVGETFKVPSSCPIVTVDGYVDPSGGDRFCLGQLSNVHRTEAIERARLHIGKGVQLECKGEGDVWVRCLSDHAVFVQSYYLDREAGRAPGDAVHKIYPSAYIKVFDLRQCHRQMQQQAATAQAAAAAQAAAVAGNIPGPGSVGGIAPAISLSAAAGIGVDDLRRLCILRMSFVKGWGPDYPRQSIKETPCWIEIHLHRALQLLDEVLHTMPIADPQPLD
partner: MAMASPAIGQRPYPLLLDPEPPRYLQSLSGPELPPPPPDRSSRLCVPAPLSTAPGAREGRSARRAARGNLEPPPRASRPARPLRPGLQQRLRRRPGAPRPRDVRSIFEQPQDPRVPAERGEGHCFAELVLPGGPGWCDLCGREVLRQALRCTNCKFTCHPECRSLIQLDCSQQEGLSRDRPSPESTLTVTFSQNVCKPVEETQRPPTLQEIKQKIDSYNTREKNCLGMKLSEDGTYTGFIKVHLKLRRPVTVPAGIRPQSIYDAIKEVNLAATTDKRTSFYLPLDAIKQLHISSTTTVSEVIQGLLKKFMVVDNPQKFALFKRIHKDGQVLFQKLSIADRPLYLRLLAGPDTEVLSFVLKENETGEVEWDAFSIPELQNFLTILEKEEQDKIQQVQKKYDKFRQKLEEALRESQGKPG
B5: DNA mismatch repair protein Mlh1 (Homo sapiens), P40692 (parent)
chain: B2 chain
partner: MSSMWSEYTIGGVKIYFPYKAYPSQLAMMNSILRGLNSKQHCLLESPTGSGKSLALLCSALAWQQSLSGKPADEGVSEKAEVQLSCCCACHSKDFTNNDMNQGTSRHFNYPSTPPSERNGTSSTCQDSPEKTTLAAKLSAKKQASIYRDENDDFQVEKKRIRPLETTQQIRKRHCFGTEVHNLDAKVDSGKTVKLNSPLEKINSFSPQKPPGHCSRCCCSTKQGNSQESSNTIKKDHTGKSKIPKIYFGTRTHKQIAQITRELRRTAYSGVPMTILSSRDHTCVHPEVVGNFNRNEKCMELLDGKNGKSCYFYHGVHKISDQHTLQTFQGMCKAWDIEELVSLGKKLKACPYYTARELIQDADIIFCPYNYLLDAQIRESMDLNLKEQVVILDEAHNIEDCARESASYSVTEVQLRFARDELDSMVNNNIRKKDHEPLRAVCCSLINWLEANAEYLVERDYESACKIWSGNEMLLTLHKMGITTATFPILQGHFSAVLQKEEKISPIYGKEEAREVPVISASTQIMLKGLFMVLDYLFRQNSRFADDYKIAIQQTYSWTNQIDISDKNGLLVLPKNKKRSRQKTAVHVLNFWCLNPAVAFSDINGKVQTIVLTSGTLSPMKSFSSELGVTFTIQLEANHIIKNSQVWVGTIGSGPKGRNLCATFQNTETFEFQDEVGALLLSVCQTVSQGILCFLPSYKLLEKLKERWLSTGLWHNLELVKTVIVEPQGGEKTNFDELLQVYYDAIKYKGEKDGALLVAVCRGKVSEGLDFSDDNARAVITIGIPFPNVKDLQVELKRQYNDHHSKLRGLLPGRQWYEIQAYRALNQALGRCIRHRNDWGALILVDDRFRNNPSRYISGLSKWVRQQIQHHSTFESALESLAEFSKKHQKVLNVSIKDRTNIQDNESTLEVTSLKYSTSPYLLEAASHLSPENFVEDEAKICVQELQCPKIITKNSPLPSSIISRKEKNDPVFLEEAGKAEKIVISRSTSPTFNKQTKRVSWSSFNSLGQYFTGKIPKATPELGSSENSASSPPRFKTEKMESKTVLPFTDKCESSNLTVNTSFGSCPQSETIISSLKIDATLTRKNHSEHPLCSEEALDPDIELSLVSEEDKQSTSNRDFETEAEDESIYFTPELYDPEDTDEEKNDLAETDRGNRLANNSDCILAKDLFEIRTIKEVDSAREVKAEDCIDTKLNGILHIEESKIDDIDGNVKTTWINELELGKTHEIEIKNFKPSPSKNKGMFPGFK
B6: Actin nucleation-promoting factor WAS (Homo sapiens), P42768 (parent)
chain: MSGGPMGGRPGGRGAPAVQQNIPSTLLQDHENQRLFEMLGRKCLTLATAVVQLYLALPPGAEHWTKEHCGAVCFVKDNPQKSYFIRLYGLQAGRLLWEQELYSQLVYSTPTPFFHTFAGDDCQAGLNFADEDEAQAFRALVQEKIQKRNQRQSGDRRQLPPPPTPANEERRGGLPPLPLHPGGDQGGPPVGPLSLGLATVDIQNPDITSSRYRGLPAPGPSPADKKRSGKKKISKADIGAPSGFKHVSHVGWDPQNGFDVNNLDPDLRSLFSRAGISEAQLTDAETSKLIYDFIEDQGGLEAVRQEMRRQEPLPPPPPPSRGGNQLPRPPIVGGNKGRSGPLPPVPLGIAPPPPTPRGPPPPGRGGPPPPPPPATGRSGPLPPPPPGAGGPPMPPPPPPPPPPPSSGNGPAPPPLPPALVPAGGLAPGGGRGALLDQIRQGIQLNKTPGAPESSALQPPPQSSEGLVGALMHVMQKRSRAIHSSDEGEDQAGDEDEDDEWDD

Variants of: B1
Details: with myd88_human MYD88, Q99836
Chain of myd88_human MYD88, Q99836 (Q99836 whole entry): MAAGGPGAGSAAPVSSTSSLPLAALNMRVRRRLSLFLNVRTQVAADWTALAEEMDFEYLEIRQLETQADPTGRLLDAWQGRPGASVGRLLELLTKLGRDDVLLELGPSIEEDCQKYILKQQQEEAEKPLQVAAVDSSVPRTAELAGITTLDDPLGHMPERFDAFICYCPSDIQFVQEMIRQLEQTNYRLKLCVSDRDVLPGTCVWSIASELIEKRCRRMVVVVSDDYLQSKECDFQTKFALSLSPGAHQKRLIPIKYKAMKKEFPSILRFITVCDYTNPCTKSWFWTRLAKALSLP

effect of a mutation on the interaction | Variant
disrupting interaction strength | G298D
with no effect | A428T

Variants of: B2
Details: with pms2_human PMS2, P54278

effect of a mutation on the interaction | Variant
disrupting interaction strength | I107R

Variants of: B3
Details: with parva_human PARVA

effect of a mutation on the interaction | Variant
with no effect | A262V

Variants of: B4
Details: with rasf5_human RASSF5, Q8WWW0

effect of a mutation on the interaction | Variant
with no effect | Y353S
with no effect | R361C
with no effect | N13S

Variants of: B5
Details: with fancj_human BRIP1, Q9BX63

effect of a mutation on the interaction | Variant
with no effect | I107R

Variants of: B6
Details: with cdc42_human CDC42, P60953
Chain of cdc42_human CDC42, P60953 (P60953 whole entry, looked up): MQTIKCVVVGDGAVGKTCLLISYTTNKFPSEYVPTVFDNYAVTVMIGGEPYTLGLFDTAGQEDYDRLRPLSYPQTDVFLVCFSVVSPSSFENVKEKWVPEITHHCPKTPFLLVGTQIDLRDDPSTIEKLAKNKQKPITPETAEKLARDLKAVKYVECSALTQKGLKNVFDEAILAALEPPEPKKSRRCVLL

effect of a mutation on the interaction | Variant
disrupting interaction strength | I294T
with no effect | E131K
